Data taken from US20230372448A1, “THERAPEUTIC USE OF LONG-ACTING CONJUGATE OF TRIPLE AGONIST ACTING ON ALL OF GLUCAGON, GLP-1 AND GIP RECEPTORS AGAINST MULTIPLE SCLEROSIS” (HANMI PHARM. CO. ,LTD., priority 2020, published 2023).
Positions of bridges follow the written chain, without caps; N, C: chain ends. Non-standard residues stand in square brackets, D forms with d. No end group written: not given here. *: point of attachment. Acetyl(2-(4-imidazolyl)) = O=C(Cc1c[nH]cn1)*; Aib = CC(C)(N)C(=O)O

T1: human GIP receptor (human, UniProt P48546 22-466)
T1 sequence (looked up): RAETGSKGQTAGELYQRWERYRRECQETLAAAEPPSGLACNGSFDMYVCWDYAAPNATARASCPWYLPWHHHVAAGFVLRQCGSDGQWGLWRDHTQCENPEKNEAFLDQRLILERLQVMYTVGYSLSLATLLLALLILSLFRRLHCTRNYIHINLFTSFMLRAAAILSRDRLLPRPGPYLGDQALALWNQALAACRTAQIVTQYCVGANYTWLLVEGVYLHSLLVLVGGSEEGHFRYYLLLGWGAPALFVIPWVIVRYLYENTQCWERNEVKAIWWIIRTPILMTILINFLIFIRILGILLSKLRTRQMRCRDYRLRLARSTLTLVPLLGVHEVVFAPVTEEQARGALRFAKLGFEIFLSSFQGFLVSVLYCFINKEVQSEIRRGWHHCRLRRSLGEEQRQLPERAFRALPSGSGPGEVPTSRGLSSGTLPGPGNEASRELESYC

B1: triple agonist of SEQ ID NO: 81 (peptide)
peptide: {Acetyl(2-(4-imidazolyl))}-[Aib]QGTFTSDYSKYLDEKRQKEFVQWLLNTC
modifications: bridge 15-19; not fully specified
B2: triple agonist of SEQ ID NO: 12 (peptide)
peptide: {Acetyl(2-(4-imidazolyl))}-GEGTFISDLSKYMDEQAVQLFVEWLMAGGPSSGAPPPSHG
modifications: not fully specified; also: ring from underlined residues, positions not shown
B3: triple agonist of SEQ ID NO: 88 (peptide)
peptide: {Acetyl(2-(4-imidazolyl))}-[Aib]QGTFTSDYSKYLDEKRQKEFVQWLLNTKC
modifications: bridge 15-19; not fully specified
B4: triple agonist of SEQ ID NO: 93 (peptide)
peptide: {Acetyl(2-(4-imidazolyl))}-[Aib]QGTFTSDYSKYLDEKRQKEFVNWLLAQKC
modifications: bridge 15-19; not fully specified
B5: triple agonist of SEQ ID NO: 95 (peptide)
peptide: Y[Aib]QGTFTSDYSKYLDEKRAKEFVQWLLCHHPSSGQPPPS
modifications: bridge 16-20; not fully specified
B6: triple agonist of SEQ ID NO: 92 (peptide)
peptide: {Acetyl(2-(4-imidazolyl))}-[Aib]QGTFTSDYSIAMDEIHQKDFVNWLLAQKC
modifications: bridge 15-19; not fully specified
B7: triple agonist of SEQ ID NO: 85 (peptide)
peptide: {Acetyl(2-(4-imidazolyl))}-[Aib]QGTFTSDYSIAMDEIHQKDFVNWLLAQC
modifications: bridge 15-19; not fully specified
B8: triple agonist of SEQ ID NO: 9 (peptide)
peptide: H[Aib]QGTFTSDVSKYLDGQAAQEFVAWLLAGC
modifications: not fully specified
B9: triple agonist of SEQ ID NO: 98 (peptide)
peptide: Y[Aib]QGTFTSDYSKALDEKAAKEFVNWLLDHHPSSGQPPPSC
modifications: bridge 16-20; not fully specified
B10: triple agonist of SEQ ID NO: 102 (peptide)
peptide: Y[Aib]QGTFTSDYSKALDEKAAKDFVNWLLDQHPSSGQPPPSC
modifications: bridge 16-20
B11: triple agonist of SEQ ID NO: 101 (peptide)
peptide: Y[Aib]QGTFTSDYSKALDEKAAKEFVNWLLDQHPSSGQPPPSC
modifications: bridge 16-20
B12: triple agonist of SEQ ID NO: 90 (peptide)
peptide: {Acetyl(2-(4-imidazolyl))}-[Aib]EGTFTSDYSIAMDEIHQKDFVNWLLAQKC
modifications: bridge 15-19; not fully specified
B13: triple agonist of SEQ ID NO: 97 (peptide)
peptide: Y[Aib]QGTFTSDYSKYLDEKRAKEFVQWLLDCHPSSGQPPPS
modifications: bridge 16-20; not fully specified

These binders were tested against human GLP-1 receptor (human, UniProt P43220 24-463) (assay: cell-based or functional assay).

In order of falling “In vitro activity (%) compared with native peptide: vs GLP-1” value:
1. B8  32.1%
2. B9  28.1%
3. B10  23.3%
4. B11  23.2%
5. B13  10.5%
6. B3  9.6%
7. B1  7.8%
8. B12  7.4%
9. B4  5.7%
10. B7  4.3%
11. B5  2.1%
12. B6  0.8%
13. B2  0.4%

The binders below were run against human GCG receptor (human, UniProt P47871 26-477) (assay: cell-based or functional assay).
Sequence of human GCG receptor (P47871 26-477): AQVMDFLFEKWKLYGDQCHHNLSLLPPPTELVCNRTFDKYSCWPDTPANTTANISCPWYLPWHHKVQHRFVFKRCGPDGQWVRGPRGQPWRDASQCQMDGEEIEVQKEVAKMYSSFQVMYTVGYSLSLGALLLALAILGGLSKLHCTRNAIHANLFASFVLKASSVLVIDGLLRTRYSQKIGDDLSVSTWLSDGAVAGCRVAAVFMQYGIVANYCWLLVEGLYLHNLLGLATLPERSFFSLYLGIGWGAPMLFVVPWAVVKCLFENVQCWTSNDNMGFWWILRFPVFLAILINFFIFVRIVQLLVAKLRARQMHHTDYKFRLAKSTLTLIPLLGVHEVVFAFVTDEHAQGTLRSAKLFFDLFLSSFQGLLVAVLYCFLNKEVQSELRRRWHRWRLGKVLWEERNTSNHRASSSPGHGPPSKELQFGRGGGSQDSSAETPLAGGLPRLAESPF

First: B1
Second: B2
The “In vitro activity (%) compared with native peptide: vs Glucagon” value (shortened to “In vitro activity (%) … vs Glucagon”) of the first is higher: 0.3% for the first, less than 0.1% for the second.

B3 and B4 are the same in “In vitro activity (%) … vs Glucagon” value: 0.3% for the first, 0.3% for the second.

Compared with B5, B6 is lower in “In vitro activity (%) … vs Glucagon” value: 0.4% for the first, less than 0.1% for the second.

Going from B7 to B8, the “In vitro activity (%) … vs Glucagon” value rises from less than 0.1% to 0.13%.

First: B9
Second: B10
The “In vitro activity (%) … vs Glucagon” value of the first is lower: 8.2% for the first, 29.5% for the second.

Compared with B11, B12 is lower in “In vitro activity (%) … vs Glucagon” value: 13.9% for the first, less than 0.1% for the second.

B13 was tested, and the “In vitro activity (%) … vs Glucagon” value was 62.8%.

Each binder was assayed against T1, human GIP receptor (assay: cell-based or functional assay).

B1 and B2 cannot be ordered by “In vitro activity (%) compared with native peptide: vs GIP” value (“In vitro activity (%) … vs GIP” for short): less than 0.1% for the first, less than 0.1% for the second.

Going from B3 to B4, the “In vitro activity (%) … vs GIP” value rises from less than 0.1% to 0.7%.

Going from B5 to B6, the “In vitro activity (%) … vs GIP” value rises from less than 0.1% to 0.4%.

Going from B7 to B8, the “In vitro activity (%) … vs GIP” value falls from 0.3% to less than 0.1%.

First: B9
Second: B10
The “In vitro activity (%) … vs GIP” value of the first is lower: 47.1% for the first, 58% for the second.

First: B11
Second: B12
The “In vitro activity (%) … vs GIP” value of the first is higher: 40.1% for the first, less than 0.1% for the second.

B13 was tested, and the “In vitro activity (%) … vs GIP” value was 2.6%.
